{
  "source": "patent US20230416361A1",
  "binders": {"B1": {"name": "anti-CD200R antibody clone 21.3.1 (mIgG1k isotype) (antibody, V domains shown)", "VH": "QVQLQQPGSELVRPGASVKLSCKASGHTFTSYWMHWVKQRPGQGLEWIGNIYPGSGSINYDEKFKSKAKLTVDTSSRTAYMQLSSLTSEDSAVYYCLTMTGTSWGQGTLVTVSA", "VL": "DVQMIQSPSSLSASLGDIVTMTCQASQGTPINLHWFQQKPGKAPKLLISGASNLEDGVPSRFSGSRYGTAFTLTISSLEDEDMATYFCLQFTYIPWTFGGGTKLEIKR"}, "B2": {"name": "hu2131_Q1E_M99G hIgG1k P238D (antibody, V domains shown)", "VH": "EVQLVQSGAEVKKPGASVKVSCKASGHTFTSYWMHWVRQAPGQGLEWMGNIYPGSGSINYDEKFQGRVTMTADTSTSTVYMELSSLRSEDTAVYYCLTGTGTSWGRGTLVTVSS", "VL": "DIQMTQSPSSLSVSVGDRVTITCQASQGTPINLHWFQQKPGKAPKLLISGASNLESGVPSRFSGSGSGTEFTFTISSLQPEDAATYYCLQFTYIPWTFGQGTKLEIKR"}, "B3": {"name": "Antibody I-4P (antibody, human IgG4 S228P, kappa, V domains shown)", "VH": "QVQLVQSGAEVKKPGASVKVSCKASGFSFSSGYYMAWVRQAPGQGLEWMGLIGVGSGSLWYAQKFQGRVTMTRDTSTSTVYMELSSLRSEDTAVYYCARHFALSDPFNLWGQGTLVTVSS", "VL": "EIVLTQSPDFQSVTPKEKVTITCQASESIDSYLLWYQQKPDQSPKLLIKQASTLASGVPSRFSGSGSGTDFTLTINSLEAEDAATYYCQNYYDISSNDFGGGTKVEIKR"}},
  "key": {"[1]": {"biological_target": "human CD200R expressed on cells (human) (UniProt Q8TD46)", "assay": "cell-based or functional assay"}, "[2]": {"biological_target": "human CD200R expressed on cells (human) (UniProt Q8TD46)"}, "[3]": {"biological_target": "human CD200R expressed on cells (human) (UniProt Q8TD46)", "assay": "flow cytometry on Jurkat T cells expressing human CD200R, 24 h at 37 C, PE anti-hIgG secondary"}, "[4]": {"biological_target": "extracellular domain of human CD200R (Met29-Leu243) (human) (UniProt Q8TD46)", "assay": "SPR (Biacore), antibody captured by anti-human Fc, CD200R extracellular domain injected, single cycle kinetics, 25 C"}, "[5]": {"biological_target": "human CD200R expressed on cells (human) (UniProt Q8TD46)", "assay": "flow cytometry on Jurkat T cells lentivirally expressing human CD200R, 24 h at 37 C, PE anti-hIgG secondary antibody, geometric MFI, non-linear curve fit"}},
  "data": [
    {"binder": "B1", "values": [
      {"measurement": "Average % inhibition of SEAP activity at Log [Antibody], M = -8.18", "setting": "[1]", "result": 35.3, "unit": "%"},
      {"measurement": "Average % inhibition of SEAP activity at Log [Antibody], M = -8.8", "setting": "[1]", "result": 28.3, "unit": "%"},
      {"measurement": "Average % inhibition of SEAP activity at Log [Antibody], M = -9.57", "setting": "[1]", "result": 23.4, "unit": "%"},
      {"measurement": "Average % inhibition of SEAP activity at Log [Antibody], M = -10.27", "setting": "[1]", "result": 9.8, "unit": "%"},
      {"measurement": "Average % inhibition of SEAP activity at Log [Antibody], M = -10.9", "setting": "[1]", "result": 1.1, "unit": "%"},
      {"measurement": "Average % inhibition of SEAP activity at Log [Antibody], M = -11.6", "setting": "[1]", "result": 1, "unit": "%"},
      {"measurement": "Average % inhibition of SEAP activity at Log [Antibody], M = -12.3", "setting": "[1]", "result": 1.7, "unit": "%"},
      {"measurement": "IC50 of inhibition of NF-kB-inducible SEAP reporter activity in CD200R-expressing THP-1 dual cells", "setting": "[1]", "result": 0.141, "unit": "nM"},
      {"measurement": "average maximal percentage inhibition (Emax) of SEAP activity", "setting": "[1]", "result": 33.2, "unit": "%"}
    ]},
    {"binder": "B2", "values": [
      {"measurement": "EC50 of DOK2 recruitment to CD200R, enzyme fragment complementation luminescence, PathHunter Jurkat CD200R cells co-cultured with FcgRIIb-expressing HEK293 cells", "setting": "[2]", "result": 0.437, "unit": "nM"},
      {"measurement": "EC50 of Dok2 recruitment to human CD200R (enzyme fragment complementation, PathHunter Jurkat CD200R cells co-cultured with FcγRIIb HEK293 cells)", "setting": "[1]", "result": 0.44, "unit": "nM"},
      {"measurement": "EC50", "setting": "[3]", "result": 0.53, "unit": "nM"},
      {"measurement": "Kd", "setting": "[4]", "result": "< 0.0193", "unit": "nM"},
      {"measurement": "koff", "setting": "[4]", "result": "< 1e-05", "unit": "s⁻¹"},
      {"measurement": "kon", "setting": "[4]", "result": 517000, "unit": "M⁻¹ s⁻¹"}
    ]},
    {"binder": "B3", "values": [
      {"measurement": "EC50 of DOK2 recruitment to CD200R, enzyme fragment complementation luminescence, PathHunter Jurkat CD200R cells co-cultured with FcgRIIb-expressing HEK293 cells", "setting": "[2]", "result": 1.14, "unit": "nM"},
      {"measurement": "Average % inhibition of SEAP activity at Log [Antibody], M = -8.18", "setting": "[1]", "result": 22.3, "unit": "%"},
      {"measurement": "Average % inhibition of SEAP activity at Log [Antibody], M = -8.8", "setting": "[1]", "result": 20.9, "unit": "%"},
      {"measurement": "Average % inhibition of SEAP activity at Log [Antibody], M = -9.57", "setting": "[1]", "result": 16.1, "unit": "%"},
      {"measurement": "Average % inhibition of SEAP activity at Log [Antibody], M = -10.27", "setting": "[1]", "result": 7.7, "unit": "%"},
      {"measurement": "Average % inhibition of SEAP activity at Log [Antibody], M = -10.9", "setting": "[1]", "result": 3.2, "unit": "%"},
      {"measurement": "Average % inhibition of SEAP activity at Log [Antibody], M = -11.6", "setting": "[1]", "result": 2.2, "unit": "%"},
      {"measurement": "Average % inhibition of SEAP activity at Log [Antibody], M = -12.3", "setting": "[1]", "result": 3.1, "unit": "%"},
      {"measurement": "EC50 of Dok2 recruitment to human CD200R (enzyme fragment complementation, PathHunter Jurkat CD200R cells co-cultured with FcγRIIb HEK293 cells)", "setting": "[1]", "result": 1.1, "unit": "nM"},
      {"measurement": "IC50 of inhibition of NF-kB-inducible SEAP reporter activity in CD200R-expressing THP-1 dual cells", "setting": "[1]", "result": 0.134, "unit": "nM"},
      {"measurement": "average maximal percentage inhibition (Emax) of SEAP activity", "setting": "[1]", "result": 19.9, "unit": "%"},
      {"measurement": "EC50", "setting": "[3]", "result": 3.4, "unit": "nM"},
      {"measurement": "EC50", "setting": "[5]", "result": 3.43, "unit": "nM"}
    ]}
  ]
}
